The target in assay [1] is T1, human Gal10-His (human, UniProt Q05315 2-142, limits assumed).
T1 construct: also called hGal10-His; human Gal10-His tagged; not shown: His tag
T1 sequence: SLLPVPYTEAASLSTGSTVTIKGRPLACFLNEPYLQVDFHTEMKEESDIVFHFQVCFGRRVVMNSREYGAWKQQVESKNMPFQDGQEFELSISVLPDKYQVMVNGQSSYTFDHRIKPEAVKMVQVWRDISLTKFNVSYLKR
Put plainly: SPR Biacore 3000, Fab periplasmic extract on Gal10-His-coated CM5. As for the experimental part:
The binding properties of the Fabs (periplasmic extract) to human Gal10-His were analyzed by SPR with a Biacore 3000 instrument. For this purpose, the diluted periplasmic extract was applied on a CM5 chip coated with human Gal10-His. As a positive control, a 20 nM injection of the purified g7B07 clone in the human Fab backbone was included at the beginning and end of the run.
The binding capacity of the Fab periplasmic extract was analyzed by SPR technology using a Biacore 3000. Briefly, diluted periplasmic extracts were injected on CM5 chip coated with 2500 RU of Gal10-His. The amplitude of the binding (Rmax), the dissociation (off-rate) of each clone, as well as the off-rate fold change compared to the controls (g7B07 and g7B07_N53A) are indicated. Clones g20H09 and g23H09 had similar or better off rate compared to the control g7B07 (Table 10). The randomized part of the CDR2 sequence is underlined (Table 10).
On the technique in general: In SPR one partner is held on a chip, and binding of the other changes the refractive index at the surface.

Assay [2] concerns the target T1, human Gal10-His. Put plainly: SPR Biacore 3000, purified hFab on captured Gal10-His. As to the method:
(§1) The binding properties of the selected Fab clones to human Gal10 were analyzed via a capture method established on a Biacore 3000 instrument. Two concentrations of the selected Fab clones were tested on human Gal10-His immobilized on a CM5 chip coated with a monoclonal anti-His. As controls, the clone g7B07 and g7B07_N53A were injected at the beginning and the end of the run. Briefly, a CM5 chip was coated with a monoclonal anti-His antibody (4000 RU), then a fixed concentration of the human Gal10-His (25 μg/mL) was captured on the anti-His chip before receiving two concentrations of the clones in the human Fab backbone.

For assay [3], the target named is T1, human Gal10-His. Put plainly: SPR slope against calibrators on captured Gal10-His; T0 sample. As for the experimental part:
(§2) The binding properties of the seven selected clones following two weeks of temperature stress was analysed using an optimized capture method on a Biacore 3000 instrument. The binding properties of the stressed samples were determined, compared to the calibration point, and expressed as a percentage of Relative Activity (% RA).
(§3) Briefly, a capture method was set-up on a Biacore 3000 instrument. For this purpose, a CM5 chip was coated with a monoclonal anti-His antibody (4000 RU), then a fixed concentration of the human Gal10-His (25 μg/mL) was captured on the anti-His chip before receiving duplicate injections of the calibrators, QC samples and temperature stressed samples of each clone. The slope of each injected sample was then calculated using the BIA evaluation software. Concentrations of the QC samples and temperature stressed samples were back-calculated by interpolating the obtained slopes of these samples to the calibrator curve. Obtained values were within +/−20% of the nominal concentration of the tested samples and are expressed as average relative accuracy (avg % RA) (Table 13).

In assay [4] the target is T1, human Gal10-His. Put plainly: SPR Biacore 3000, hFab on human Gal10-His captured by anti-His CM5. As for the experimental part:
(§4) The binding properties of the selected clones to human and cynomolgus Gal10 was analyzed via a capture method established on a Biacore 3000 instrument.
(§5) For this purpose, two approaches were used. In the first, two concentrations of the selected clones were applied on cynomolgus (WGS isoform) Gal10-His capture on a CM5 chip coated with a monoclonal anti-His antibody. The second approach involved a serial dilution that was applied on human or cynomolgus (WGS isoform) Gal10-His in the same set-up.

Assay [5] addresses T1, human Gal10-His. Put plainly: SPR slope against calibrators on captured Gal10-His; sample 2 weeks at 37 C. As to the method: as §2, §3
Assay [6] addresses T2, cynomolgus Gal10-His (WGS isoform) (cynomolgus).
T2 construct: also called cynomolgus antigen
Put plainly: SPR Biacore 3000, hFab on cynomolgus Gal10-His (WGS) captured by anti-His CM5. As to the method: as §4, §5

In assay [7] the target is T1, human Gal10-His. Put plainly: SPR Biacore 3000, purified hFab (2 conc.) on Gal10-His captured by anti-His CM5. As to the method:
as §1

The target of assay [8] is T1, human Gal10-His. Put plainly: SPR Biacore 3000, hFab on captured human Gal10-His; column head prints (M), the text gives nM. As to the method: as §4, §5
Assay [9] deals with T1, human Gal10-His. Put plainly: competition ELISA on coated Gal10-His; hFab 20 ug/mL, competitor g7B07-hFab-Biot, streptavidin-HRP. As for the experimental part:
An epitope binning analysis of the humanized Fab clones was carried out in comparison with the humanized Fab of g7B07.
For this experiment, a sub-optimal concentration of the biotinylated clone g7B07-humanized Fab was added to the Gal10 coated plate and pre-incubated with the selected clones. The percentage competition with g7B07 was then determined (Table 17). Motavizumab (Mota) in a human Fab backbone was used as a negative control (0% competition). Clone g7B07 was used as the positive control for competition and was therefore set as the 100% competition value. The anti-human specific clone 1D11 (binding to Tyrosine 69 residue) was included in the tested panel as a negative control for competition with 7B07 for Gal10 binding because it was known that clone 1D11 binds to the opposite side of Gal10 (including Tyrosine 69).

Assay [10] addresses T2, cynomolgus Gal10-His (WGS isoform). Put plainly: SPR Biacore 3000, hFab on captured cynomolgus Gal10-His (WGS); column head prints (M), the text gives nM. As for the experimental part:
as §4, §5

Results on ten molecules are retold here after patent US20250059285A1 (ARGENX, published 2025).

B1: g20B05 (Fab, periplasmic extract) (Fab, V domains shown)
VH: EVQLLESGGGLVQPGGSLRLSCAASGFTFRSYDMSWVRQAPGKGLEWVSAIKPVGITYYADSVKGRFTISRDNSKNTLYLQMNSLRAEDTAVYYCATTHGIGTLGFGSWGQGTLVTVSS
VL: SYELTQPLSVSVALGQTARITCDGNNIGSKSAQWYQQKPGQAPVLVIYADEYRPEGIPERFSGSNSGNTATLTISRAQAGDEADYYCQVWDGSAAVFGGGTQLTVL
notes: X3 library; VH assembled by inference
By koff is commonly meant the first-order rate constant of dissociation. For B1, in the assay with human Gal10-His [1], the “Fold off-rate compared to g7B07” value amounted to 3.3 fold and the dissociation rate constant (koff) is 0.023 s⁻¹.

B2: g24F02 (human Fab) (Fab, V domains shown)
VH: EVQLLESGGGLVQPGGSLRLSCAASGFTFSSYAMSWVRQAPGKGLEWVSAINNGGGSTSYADSVKGRFTISRDNSKNTLYLQMNSLRAEDTAVYYCAKGLRVGVLGFDYWGQGTLVTVSS
VL: SYELTQPLSVSVALGQTARITCDGNNIGSKSAQWYQQKPGQAPVLVIYADEYRPEGIPERFSGSNSGNTATLTISRAQAGDEADYYCQVWDGSAAVFGGGTQLTVL
notes: Human Fab backbone (human CH1, human lambda CL); also called germlined 24F02
Broadly, the kon is a measure of how fast the partners come together. What is called Kd is the free concentration of one partner at which half of the binding sites on the other are occupied at equilibrium, for simple one-to-one binding. As to B2, in the assay with human Gal10-His [2], the “fold better affinity than g7B07” value was 4.7 fold. In addition, the “% Relative Activity (RA) on Biacore” value in the assay with human Gal10-His [3] amounted to 101%. Also, in the assay with human Gal10-His [4], the “Amplitude R0” value amounted to 644 RU, the koff was determined as 0.0016 s⁻¹ and the kon is 1.1e+06 M⁻¹ s⁻¹. Moreover, the “% Relative Activity (RA) on Biacore” value in the assay with human Gal10-His [5] worked out at 175%. In assay [6], the “Amplitude R0” value came out at 566 RU, the koff came out at 0.0078 s⁻¹ and the kon worked out at 1.4e+06 M⁻¹ s⁻¹. Further, in the assay with human Gal10-His [7], the Kd was determined as 2 nM, the “kd-fold drop vs g7B07” value was 2.8 fold, the koff is 0.0016 s⁻¹ and the kon stood at 830000 M⁻¹ s⁻¹. The molecule further had a Kd with human Gal10-His [8] of 1.49 nM. For the same molecule, in the assay with human Gal10-His [9], the “% Competition against g7B07-Biot” value is 96.5% and the “Mean OD value” was found to be 0.26 OD. This molecule returned a Kd in assay [10] of 5.4 nM.

B3: g21F11 (Fab, periplasmic extract) (Fab, V domains shown)
VH: EVQLLESGGGLVQPGGSLRLSCAASGFTFRSYDMSWVRQAPGKGLEWVSAIHTPMTYYADSVKGRFTISRDNSKNTLYLQMNSLRAEDTAVYYCATTHGIGTLGFGSWGQGTLVTVSS
VL: SYELTQPLSVSVALGQTARITCDGNNIGSKSAQWYQQKPGQAPVLVIYADEYRPEGIPERFSGSNSGNTATLTISRAQAGDEADYYCQVWDGSAAVFGGGTQLTVL
notes: X4 library; VH assembled by inference
For B3, in the assay with human Gal10-His [1], the “Fold off-rate compared to g7B07” value turned out to be 5.1 fold and the koff was found to be 0.035 s⁻¹.

B4: g21B01 (Fab, periplasmic extract) (Fab, V domains shown)
VH: EVQLLESGGGLVQPGGSLRLSCAASGFTFRSYDMSWVRQAPGKGLEWVSAISGALTYYADSVKGRFTISRDNSKNTLYLQMNSLRAEDTAVYYCATTHGIGTLGFGSWGQGTLVTVSS
VL: SYELTQPLSVSVALGQTARITCDGNNIGSKSAQWYQQKPGQAPVLVIYADEYRPEGIPERFSGSNSGNTATLTISRAQAGDEADYYCQVWDGSAAVFGGGTQLTVL
notes: as for B3
As to B4, in the assay with human Gal10-His [1], the “Fold off-rate compared to g7B07” value is 3.8 fold and the koff was 0.026 s⁻¹.

B5: g20F04 (Fab, periplasmic extract) (Fab, V domains shown)
VH: EVQLLESGGGLVQPGGSLRLSCAASGFTFRSYDMSWVRQAPGKGLEWVSAIKHQVITYYADSVKGRFTISRDNSKNTLYLQMNSLRAEDTAVYYCATTHGIGTLGFGSWGQGTLVTVSS
VL: SYELTQPLSVSVALGQTARITCDGNNIGSKSAQWYQQKPGQAPVLVIYADEYRPEGIPERFSGSNSGNTATLTISRAQAGDEADYYCQVWDGSAAVFGGGTQLTVL
notes: X3 library
Regarding B5, in the assay with human Gal10-His [1], the “Fold off-rate compared to g7B07” value was 2.3 fold and the off-rate (koff) was determined as 0.016 s⁻¹.

B6: g21C06 (Fab, periplasmic extract) (Fab, V domains shown)
VH: EVQLLESGGGLVQPGGSLRLSCAASGFTFRSYDMSWVRQAPGKGLEWVSAIKRPWTYYADSVKGRFTISRDNSKNTLYLQMNSLRAEDTAVYYCATTHGIGTLGFGSWGQGTLVTVSS
VL: SYELTQPLSVSVALGQTARITCDGNNIGSKSAQWYQQKPGQAPVLVIYADEYRPEGIPERFSGSNSGNTATLTISRAQAGDEADYYCQVWDGSAAVFGGGTQLTVL
notes: as for B3
Regarding B6, in the assay with human Gal10-His [1], the “Fold off-rate compared to g7B07” value is 5.2 fold and the koff amounted to 0.036 s⁻¹.

B7: g23G11 (Fab, periplasmic extract) (Fab, V domains shown)
VH: EVQLLESGGGLVQPGGSLRLSCAASGFTFRSYDMSWVRQAPGKGLEWVSAIQKTIVPTYYADSVKGRFTISRDNSKNTLYLQMNSLRAEDTAVYYCATTHGIGTLGFGSWGQGTLVTVSS
VL: SYELTQPLSVSVALGQTARITCDGNNIGSKSAQWYQQKPGQAPVLVIYADEYRPEGIPERFSGSNSGNTATLTISRAQAGDEADYYCQVWDGSAAVFGGGTQLTVL
notes: X6 library; VH assembled by inference
Turning to B7, in the assay with human Gal10-His [1], the “Fold off-rate compared to g7B07” value worked out at 2.6 fold and the koff amounted to 0.018 s⁻¹.

B8: g23H11 (Fab, periplasmic extract) (Fab, V domains shown)
VH: EVQLLESGGGLVQPGGSLRLSCAASGFTFRSYDMSWVRQAPGKGLEWVSAISKMPHLTYYADSVKGRFTISRDNSKNTLYLQMNSLRAEDTAVYYCATTHGIGTLGFGSWGQGTLVTVSS
VL: SYELTQPLSVSVALGQTARITCDGNNIGSKSAQWYQQKPGQAPVLVIYADEYRPEGIPERFSGSNSGNTATLTISRAQAGDEADYYCQVWDGSAAVFGGGTQLTVL
notes: as for B7
For B8, in the assay with human Gal10-His [1], the “Fold off-rate compared to g7B07” value is 3.6 fold and the dissociation rate constant (koff) is 0.025 s⁻¹.

B9: g22C03 (Fab, periplasmic extract) (Fab, V domains shown)
VH: EVQLLESGGGLVQPGGSLRLSCAASGFTFRSYDMSWVRQAPGKGLEWVSAIKLGTFTYYADSVKGRFTISRDNSKNTLYLQMNSLRAEDTAVYYCATTHGIGTLGFGSWGQGTLVTVSS
VL: SYELTQPLSVSVALGQTARITCDGNNIGSKSAQWYQQKPGQAPVLVIYADEYRPEGIPERFSGSNSGNTATLTISRAQAGDEADYYCQVWDGSAAVFGGGTQLTVL
notes: X5 library; VH assembled by inference
With B9, in the assay with human Gal10-His [1], the “Fold off-rate compared to g7B07” value came to 2.9 fold and the koff was 0.02 s⁻¹.

B10: g23E05 (Fab, periplasmic extract) (Fab, V domains shown)
VH: EVQLLESGGGLVQPGGSLRLSCAASGFTFRSYDMSWVRQAPGKGLEWVSAIRTFEHHTYYADSVKGRFTISRDNSKNTLYLQMNSLRAEDTAVYYCATTHGIGTLGFGSWGQGTLVTVSS
VL: SYELTQPLSVSVALGQTARITCDGNNIGSKSAQWYQQKPGQAPVLVIYADEYRPEGIPERFSGSNSGNTATLTISRAQAGDEADYYCQVWDGSAAVFGGGTQLTVL
notes: as for B7
As for B10, in the assay with human Gal10-His [1], the “Fold off-rate compared to g7B07” value came out at 1.8 fold and the koff amounted to 0.013 s⁻¹.
